What was measured:
Experiment in all cases: G' assay
[1] = molecular target: GST-BAI-1 Associated Protein PDZ domain 2 (Mus musculus (Mouse)), Q6RHR9
[2] = molecular target: T1, GST-KIAA0807(S) PDZ domain 1 (Homo sapiens (Human)), Q6P0Q8
T1 chain: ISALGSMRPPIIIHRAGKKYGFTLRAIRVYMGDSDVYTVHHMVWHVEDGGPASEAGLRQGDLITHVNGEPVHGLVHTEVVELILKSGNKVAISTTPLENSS

[3] = molecular target: GST-KIAA807 [GST: P08515]
[4] = molecular target: T2, GST-Shank 1 PDZ domain 1 (Homo sapiens (Human)), Q9UPX8
T2 chain: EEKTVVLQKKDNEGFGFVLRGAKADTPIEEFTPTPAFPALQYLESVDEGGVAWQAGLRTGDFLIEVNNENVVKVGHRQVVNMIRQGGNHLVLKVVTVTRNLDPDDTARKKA

[5] = molecular target: GST-DLG1 PDZ domains 1, 2 (Homo sapiens), Q12959
[6] = molecular target: GST-KIAA1634 PDZ domain 1 (Homo sapiens (Human)), Q5TCQ9
Chain of GST-KIAA1634 PDZ domain 1 (Homo sapiens (Human)), Q5TCQ9 (Q5TCQ9 401-502): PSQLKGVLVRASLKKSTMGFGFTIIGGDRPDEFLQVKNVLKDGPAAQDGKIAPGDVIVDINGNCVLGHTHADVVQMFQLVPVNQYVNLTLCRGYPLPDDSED

[7] = molecular target: T3, GST-DLG1 PDZ domain 2 (Homo sapiens), Q12959
T3 chain: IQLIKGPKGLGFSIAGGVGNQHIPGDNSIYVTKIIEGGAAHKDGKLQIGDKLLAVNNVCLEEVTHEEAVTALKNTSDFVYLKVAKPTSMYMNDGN

[8] = molecular target: GST-PAR3 PDZ domain 3 (Homo sapiens (Human)), Q8TEW0
Chain of GST-PAR3 PDZ domain 3 (Homo sapiens (Human)), Q8TEW0 (Q8TEW0 579-681): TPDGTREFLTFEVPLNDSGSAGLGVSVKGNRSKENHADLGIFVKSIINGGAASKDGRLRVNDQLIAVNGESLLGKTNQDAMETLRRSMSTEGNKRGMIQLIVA

[9] = molecular target: T4, GST-PTPL1 PDZ domain 4 (Homo sapiens (Human)), Q12923
T4 chain: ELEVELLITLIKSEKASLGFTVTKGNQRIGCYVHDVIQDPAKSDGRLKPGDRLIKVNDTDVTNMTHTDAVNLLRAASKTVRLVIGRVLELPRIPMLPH

[10] = molecular target: T5, GST-APXL-1 PDZ domain 1 (Homo sapiens (Human)), Q13796
T5 chain: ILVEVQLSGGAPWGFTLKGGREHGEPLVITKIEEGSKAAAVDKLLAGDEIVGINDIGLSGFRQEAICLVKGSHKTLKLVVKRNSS

[11] = molecular target: T6, GST-INADL PDZ domain 8 (Homo sapiens (Human)), Q8NI35
T6 chain: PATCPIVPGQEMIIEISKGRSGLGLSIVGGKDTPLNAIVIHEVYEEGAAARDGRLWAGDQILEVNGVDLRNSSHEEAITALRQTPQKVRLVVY

[12] = molecular target: T7, GST-MINT1 PDZ domain 2 (Mus musculus (Mouse)), B2RUJ5
T7 chain: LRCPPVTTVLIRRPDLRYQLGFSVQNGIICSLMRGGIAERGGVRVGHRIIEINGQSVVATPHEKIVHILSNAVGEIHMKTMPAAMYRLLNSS

[13] = molecular target: T8, GST-MUPP1 PDZ domain 10 (Homo sapiens (Human)), O75970
T8 chain: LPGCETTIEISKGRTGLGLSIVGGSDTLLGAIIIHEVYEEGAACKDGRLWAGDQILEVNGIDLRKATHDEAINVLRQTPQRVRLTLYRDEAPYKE

[14] = molecular target: T9, GST-KIAA0382 PDZ domain 1 (Canis lupus familiaris (Dog) (Canis familiaris)), A0A8I3
T9 chain: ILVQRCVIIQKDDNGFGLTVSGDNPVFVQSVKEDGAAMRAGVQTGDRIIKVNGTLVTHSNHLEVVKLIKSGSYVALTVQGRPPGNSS

[15] = molecular target: T10, GST-AIPC PDZ domain 1 (Homo sapiens (Human)), O15018
T10 chain: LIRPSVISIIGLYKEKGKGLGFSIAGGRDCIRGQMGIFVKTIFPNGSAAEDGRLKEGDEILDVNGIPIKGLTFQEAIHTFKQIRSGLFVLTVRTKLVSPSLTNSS

[16] = molecular target: T11, GST-MINT1 PDZ domains 1, 2, Q02410
T11 chain: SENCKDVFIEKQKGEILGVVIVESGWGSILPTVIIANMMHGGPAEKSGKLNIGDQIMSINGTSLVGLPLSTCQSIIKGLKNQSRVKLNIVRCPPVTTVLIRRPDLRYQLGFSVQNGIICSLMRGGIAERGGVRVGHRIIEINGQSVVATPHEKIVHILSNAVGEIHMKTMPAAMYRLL

[17] = molecular target: T12, GST-KIAA0973 PDZ domain 1 (Homo sapiens (Human)), Q9Y2H9
T12 chain: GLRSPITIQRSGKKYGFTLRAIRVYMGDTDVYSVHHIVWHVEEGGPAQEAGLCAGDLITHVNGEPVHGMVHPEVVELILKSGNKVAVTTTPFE

[18] = molecular target: T13, GST-KIAA1634 PDZ domain 2 (Homo sapiens (Human)), Q5TCQ9
T13 chain: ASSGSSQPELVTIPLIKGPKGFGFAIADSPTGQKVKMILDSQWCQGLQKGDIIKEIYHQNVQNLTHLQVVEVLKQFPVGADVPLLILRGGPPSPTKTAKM

[19] = molecular target: T14, GST-NeDLG PDZ domains 1, 2, Q92796
T14 chain: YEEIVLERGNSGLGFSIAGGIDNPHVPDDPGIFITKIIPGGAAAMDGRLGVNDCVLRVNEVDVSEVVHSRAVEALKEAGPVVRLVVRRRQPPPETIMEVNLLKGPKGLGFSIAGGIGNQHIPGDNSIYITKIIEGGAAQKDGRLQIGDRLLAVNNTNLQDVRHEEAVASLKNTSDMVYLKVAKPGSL

[20] = molecular target: GST-PSD95 PDZ domains 1, 2, 3 (Homo sapiens), P78352
Chain of GST-PSD95 PDZ domains 1, 2, 3 (Homo sapiens), P78352 (P78352 62-395): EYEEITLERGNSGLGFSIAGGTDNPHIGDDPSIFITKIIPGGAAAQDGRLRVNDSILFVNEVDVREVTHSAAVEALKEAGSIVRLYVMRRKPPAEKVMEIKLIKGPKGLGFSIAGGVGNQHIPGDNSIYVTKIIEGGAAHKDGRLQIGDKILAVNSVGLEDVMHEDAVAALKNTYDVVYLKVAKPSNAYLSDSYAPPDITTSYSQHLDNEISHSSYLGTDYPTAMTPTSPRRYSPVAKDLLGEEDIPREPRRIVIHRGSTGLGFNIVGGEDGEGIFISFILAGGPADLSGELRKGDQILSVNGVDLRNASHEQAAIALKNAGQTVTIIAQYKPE

[21] = molecular target: T15, GST-PTPL1 PDZ domain 2 (Homo sapiens (Human)), Q12923
T15 chain: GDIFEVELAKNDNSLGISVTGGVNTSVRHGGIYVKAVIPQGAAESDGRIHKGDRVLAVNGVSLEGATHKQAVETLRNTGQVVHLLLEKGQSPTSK

[22] = molecular target: GST-KIAA0147 PDZ domain 1 (Homo sapiens (Human)), Q14160
Chain of GST-KIAA0147 PDZ domain 1 (Homo sapiens (Human)), Q14160 (Q14160 other isoform, or with tags, fused parts or gaps): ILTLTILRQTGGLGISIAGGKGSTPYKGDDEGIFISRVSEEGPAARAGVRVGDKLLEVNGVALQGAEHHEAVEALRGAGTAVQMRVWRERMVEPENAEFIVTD

[23] = molecular target: T16, GST-KIAA1526 PDZ domain 1 (Homo sapiens (Human)), Q9P202
T16 chain: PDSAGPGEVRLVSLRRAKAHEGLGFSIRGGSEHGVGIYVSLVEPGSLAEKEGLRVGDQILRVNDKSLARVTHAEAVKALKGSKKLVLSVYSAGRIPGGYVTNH

[24] = molecular target: T17, GST-TIP1 PDZ domain 1 (Table 9 insert) (Homo sapiens (Human)), O14907
T17 chain: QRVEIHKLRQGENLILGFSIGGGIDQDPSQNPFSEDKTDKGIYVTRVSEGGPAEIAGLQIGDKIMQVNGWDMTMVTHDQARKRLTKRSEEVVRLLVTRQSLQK

[25] = molecular target: T18, GST-LIM-RIL PDZ domain 1 (Homo sapiens (Human)), P50479
T18 chain: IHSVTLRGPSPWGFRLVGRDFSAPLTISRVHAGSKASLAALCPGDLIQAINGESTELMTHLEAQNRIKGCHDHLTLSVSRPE
Note: key of the grades not given here.

Chain of GST-KIAA807 [GST: P08515] (P08515 whole entry, the tested form may be a part): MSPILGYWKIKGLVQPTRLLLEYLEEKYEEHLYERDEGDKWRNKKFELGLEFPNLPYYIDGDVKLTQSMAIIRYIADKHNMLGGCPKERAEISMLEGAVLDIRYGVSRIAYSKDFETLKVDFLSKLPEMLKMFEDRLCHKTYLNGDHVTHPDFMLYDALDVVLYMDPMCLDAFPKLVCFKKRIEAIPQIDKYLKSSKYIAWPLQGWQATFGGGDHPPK
Chain of GST-BAI-1 Associated Protein PDZ domain 2 (Mus musculus (Mouse)), Q6RHR9 (Q6RHR9 455-558): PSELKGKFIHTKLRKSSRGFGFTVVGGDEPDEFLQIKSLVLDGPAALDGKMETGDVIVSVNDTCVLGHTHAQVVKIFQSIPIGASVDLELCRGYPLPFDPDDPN

B1: Clasp-5 (peptide)
peptide: RDSFHRSSFRKAETQLSQGS
modifications: not checked
Classification [1]: 1 A450 class
Classification [2]: 1 A450 class
Classification [3]: 1 A450 class
Classification [4]: 1 A450 class

B2: CFTCR (cystic fibrosis transmembrane conductance regulator) (peptide)
peptide: KPQIAALKEETEEEVQDTRL
modifications: not checked
Classification [2]: 2 A450 class
Classification [3]: 1 A450 class
Classification [4]: 1 A450 class

B3: claudin 10 (peptide)
peptide: GGEDFKTTNPSKQFDKNAYV
modifications: not checked
Classification [5]: 1 A450 class
Classification [6]: 1 A450 class

B4: GLUR7 (metabotropic glutamate receptor) (peptide)
peptide: VDPNSPAAKKKYVSYNNLVI
modifications: not checked
Classification [7]: 1 A450 class
Classification [6]: 1 A450 class
Classification [8]: 2 A450 class

B5: RhoGAP 1 (PTPL1-associated) (peptide)
peptide: PRLKRMQQFEDLEDEIPQFV
modifications: not checked
Classification [9]: 2 A450 class

B6: parathyroid hormone receptor 2 (peptide)
peptide: RPMESNPDTEGAQGETEDVL
modifications: not checked
Classification [10]: 1 A450 class
Classification [8]: 1 A450 class

B7: claudin 1 (peptide)
peptide: SYPTPRPYPKPAPSSGKDYV
modifications: not checked
Classification [11]: 1 A450 class
Classification [12]: 1 A450 class

B8: serotonin receptor 5-HT-2C (peptide)
peptide: ENLELPVNPSSVVSERISSV
modifications: not checked
Classification [11]: 1 A450 class
Classification [13]: 1 A450 class

B9: CDw128B (peptide)
peptide: KDSRPSFVGSSSGHTSTTL
modifications: not checked
Classification [14]: 2 A450 class
Classification [2]: 5 A450 class
Classification [3]: 5 A450 class
Classification [4]: 3 A450 class

B10: CAPON (carboxyl-terminal PDZ ligand of neuronal nitric oxide synthase) mRNA (peptide)
peptide: LLNVLQRQELGDGLDDEIAV
modifications: not checked
Classification [15]: 1 A450 class
Classification [10]: 1 A450 class
Classification [2]: 1 A450 class
Classification [3]: 1 A450 class
Classification [8]: 1 A450 class
Classification [9]: 1 A450 class

B11: CD6 (peptide)
peptide: SPQPDSTDNDDYDDISAA
modifications: not checked
Classification [2]: 1 A450 class
Classification [3]: 1 A450 class

B12: claudin 7 (peptide)
peptide: KAGYRAPRSYPKSNSSKEYV
modifications: not checked
Classification [16]: 4 A450 class

B13: claudin 18 (peptide)
peptide: DGGARTEDEVQSYPSKHDYV
modifications: not checked
Classification [16]: 1 A450 class

B14: claudin 9 (peptide)
peptide: LGYSIPSRSGASGLDKRDYV
modifications: not checked
Classification [16]: 1 A450 class

B15: alpha-1-syntrophin (peptide)
peptide: IVFIIHSFLSAKVTRLGLLA
modifications: not checked
Classification [2]: 1 A450 class

B16: muscarinic Ach receptor M4 (peptide)
peptide: QQYQQRQSVIFHKRAPEQAL
modifications: not checked
Classification [15]: 1 A450 class
Classification [10]: 1 A450 class
Classification [2]: 1 A450 class
Classification [3]: 1 A450 class

B17: C5 Anaphylatoxin receptor (peptide)
peptide: ESKSFTRSTVDTMAQKTQAV
modifications: not checked
Classification [9]: 1 A450 class

B18: TRAF2 (peptide)
peptide: NSYVRDDAIFIKAIVDLTGL
modifications: not checked
Classification [2]: 4 A450 class
Classification [17]: 1 A450 class
Classification [3]: 2 A450 class

B19: NMDA R2C (peptide)
peptide: HPTDITGLPNLSDPSVSTVV
modifications: not checked
Classification [5]: 1 A450 class
Classification [18]: 1 A450 class
Classification [19]: 2 A450 class
Classification [20]: 1 A450 class
Classification [21]: 1 A450 class

B20: RA-GEF (ras/rap1A-assoc-GEF) (peptide)
peptide: PYQSQGFSTEEDEDEQVSAV
modifications: not checked
Classification [22]: 1 A450 class
Classification [18]: 2 A450 class
Classification [21]: 4 A450 class

B21: GAIP (G-alpha interacting protein) RGS 19 (peptide)
peptide: SSPTYRALLLQGPSQSSSEA
modifications: not checked
Classification [23]: 1 A450 class

B22: ropporin (peptide)
peptide: GPDGIITVNDFTQNPRVQLE
modifications: not checked
Classification [24]: 1 A450 class

B23: c-kit receptor (peptide)
peptide: INSVGSTASSSQPLLVHDDV
modifications: not checked
Classification [11]: 1 A450 class
Classification [25]: 1 A450 class
Classification [12]: 1 A450 class
Classification [13]: 1 A450 class

B24: Clasp-1 (peptide)
peptide: VISKATPALPTVSISSSAEV
modifications: not checked
Classification [15]: 1 A450 class
Classification [2]: 1 A450 class
Classification [3]: 1 A450 class
Classification [16]: 1 A450 class

From patent US20050282743A1, “Molecular interactions in cells” (Arbor Vita Corporation, priority 2001, published 2005)
